Target: Bcl-xL, Q07817
Experiment: peptide SPOT array, c-Myc-tagged receptor at 1 uM or 100 nM, anti-c-Myc-Cy3

Bcl-xL, Q07817, sequence (Q07817 1-209): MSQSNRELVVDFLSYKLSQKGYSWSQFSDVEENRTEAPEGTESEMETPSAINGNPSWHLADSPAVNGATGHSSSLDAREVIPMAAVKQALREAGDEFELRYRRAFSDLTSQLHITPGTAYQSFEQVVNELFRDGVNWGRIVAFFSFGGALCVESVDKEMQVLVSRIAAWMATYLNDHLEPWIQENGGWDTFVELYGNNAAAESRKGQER

First: PVQVQQYIKKLYILGGEVAESAQKCT [PAXIP1]
Second: GMTMIEICEKLEDCSRKLIKENGLNA [METAP2]
The SPOT signal as a fraction of Bim BH3's signal on the same receptor and array of the first is higher: 0.05 for the first, 0.03 for the second.

Compared with SISLTPVAKGLENMGADFLESLEEGQ [SLC28A1], NKELSELIEQLQKNADQVEKNIVDTE [PPL] is higher in SPOT signal as a fraction of Bim BH3's signal on the same receptor and array: 0.02 for the first, 0.03 for the second.

Compared with RAELTGLARRLADRARKLQETNLRAV, VENTTDLASILIKDADRLNSGCYELK [TTN] is lower in SPOT signal as a fraction of Bim BH3's signal on the same receptor and array: 0.58 for the first, 0.02 for the second.

LSSISELSARLHLWAFKMDYETTEKE [FHOD3] and GPGTLECAELLLRFGARVDGRSEEEE [ASB10] are the same in SPOT signal as a fraction of Bim BH3's signal on the same receptor and array: 0.03 for the first, 0.03 for the second.

Compared with TNISWRACDHDRCIACDFLVVSYDDY [C8orf37], GHIYLGAVNRIYKLSSDLKVLVTHET [PLXNA4] is higher in SPOT signal as a fraction of Bim BH3's signal on the same receptor and array: 0.03 for the first, 0.08 for the second.

Compared with VYILRKAARRLAQVLRAAGVRVGLLS [CACNA1G], LFQLKFTAKQLEKLAKKAEKDSKAEQ [CHMP1A] is lower in SPOT signal as a fraction of Bim BH3's signal on the same receptor and array: 0.67 for the first, 0.18 for the second.

Compared with PFDCRDYAVVLRKYLDKIYSISMKHP [FOLH1], EVLAGPLAQRDSHIAEDVGRLVKKSR [ARHGAP4] is lower in SPOT signal as a fraction of Bim BH3's signal on the same receptor and array: 0.44 for the first, 0.04 for the second.

Compared with HRNTRNLAAFDGKASDLLRFPVKQLY, FGTTLKNCRHLLECAKELDVQIIGVK [AZIN1] is lower in SPOT signal as a fraction of Bim BH3's signal on the same receptor and array: 1.4 for the first, 0.03 for the second.

Compared with EVRSSQFARKLWRSLRRISQVSSGET [NBEAL2], DVNIPDLIKQLDILGDNGNLRNEEQV [JAKMIP2] is lower in SPOT signal as a fraction of Bim BH3's signal on the same receptor and array: 0.62 for the first, 0.02 for the second.

First: LGRTGQVCLFLKRGLDQHALDQEQRD [ACAP3]
Second: EMNLQDHIESISKVAEVAGKEYAIEQ [DNAH1]
The SPOT signal as a fraction of Bim BH3's signal on the same receptor and array of the first is higher: 0.29 for the first, 0.02 for the second.

Compared with KVFLNKAADFIEELSSLFKSHSSKRI [MYPN], FERVEQMCIQDKEVGDRVNYIKRSLQ [TRPM7] is lower in SPOT signal as a fraction of Bim BH3's signal on the same receptor and array: 0.13 for the first, 0.03 for the second.

Compared with ATKRETAATFLKKVLKEFGFQNNGFS [NPLOC4], FSEFIGMIQEIQQAAERLERNFVDSR [RNF123] is lower in SPOT signal as a fraction of Bim BH3's signal on the same receptor and array: 0.48 for the first, 0.03 for the second.

First: HPKRKQVTELLLRKLANVNEKNKDFM [TNKS]
Second: HRTSNVLTLSLKRFLNFSGGKITKDV [USP36]
The SPOT signal as a fraction of Bim BH3's signal on the same receptor and array of the first is higher: 0.43 for the first, 0.35 for the second.

First: LKELDLSGNSDSHSAVKSLCKTLRRP [NLRP1]
Second: TERIILFGRELQALSEQLGREYGKNL [RANBP10]
The SPOT signal as a fraction of Bim BH3's signal on the same receptor and array of the first is higher: 0.22 for the first, 0.03 for the second.

Going from FTGNNTAVQEDKRVSEQFTATFRRKA [TUBB4Q] to NGQFLGDALDLQKWAHEVWDIVDIKP [PPIL6], the SPOT signal as a fraction of Bim BH3's signal on the same receptor and array falls from 0.41 to 0.03.

Compared with GERLRQSGERLRQSGERFKKSISNAA [MURC], VTQLRSLVIDLERTAKELDTNTLKNA [TRIM40] is lower in SPOT signal as a fraction of Bim BH3's signal on the same receptor and array: 0.44 for the first, 0.03 for the second.

First: DGVLSFIHHQIIELARDCLTKSRDGL [MAST1]
Second: YKGHREIARYLLEQLAQVNRRSAKGN [FEM1A]
The SPOT signal as a fraction of Bim BH3's signal on the same receptor and array of the first is lower: 0.03 for the first, 0.81 for the second.

Compared with LTKAERLSKELLQCGRIIKEEWIEIE [TTC23], PHQFDGVPDKLIQALYQVKYNSKKMK [EVI5] is higher in SPOT signal as a fraction of Bim BH3's signal on the same receptor and array: 0.03 for the first, 0.48 for the second.

Going from DFEARKAAIEIARLAERAQQKTLTSA [C4orf22] to FVDINPLTGIILKAAKRFQINIYVKK [SCARB2], the SPOT signal as a fraction of Bim BH3's signal on the same receptor and array rises from 0.04 to 0.16.

Going from HERCQQPCKRLLICSHKCQEPCIGEC [ZNFX1] to KEDLKGNIDKLRALADDIDKTHKKFT [APOL6], the SPOT signal as a fraction of Bim BH3's signal on the same receptor and array rises from 0.03 to 0.17.

First: FLRINTIAMRLLAYALDYWSKGQLKA [PANK2]
Second: DISLSNSGFKLVNFLCDYHQYRDKFS [PION]
The SPOT signal as a fraction of Bim BH3's signal on the same receptor and array of the first is higher: 0.19 for the first, 0.17 for the second.

Going from WDEMNVLAHGLLQLGQGLREHAERTR [ANGPTL4] to RAELTGLARRDADRARKLQETNLRAV, the SPOT signal as a fraction of Bim BH3's signal on the same receptor and array rises from 0.04 to 0.51.

First: RTNNYQLSDEDRKNGVELTSLRQKVA [GRIPAP1]
Second: NRGYYDVAKQLLAAGAEVNTKGLDDD [ANKRD11]
The SPOT signal as a fraction of Bim BH3's signal on the same receptor and array of the first is higher: 0.05 for the first, 0.03 for the second.

Going from VGNVDECGKKLVEVARRCRDEAIAAC [XXXX] to LDYHRQAVQILDELAEKLKRRMREAS [SH3GL1], the SPOT signal as a fraction of Bim BH3's signal on the same receptor and array rises from 0.02 to 0.05.

Going from GFANHDVVEVDRNAGQVVHLTLVRRK [INADL] to DISALTASNLDKKYAEKYSGILEGPV [FIGN], the SPOT signal as a fraction of Bim BH3's signal on the same receptor and array falls from 0.08 to 0.02.

First: DLSSTFVSLADRKVGDWPLSARREKG [TTC31]
Second: MDYVGGYALCLDMTARDVQDECKKKG [FAHD1]
The SPOT signal as a fraction of Bim BH3's signal on the same receptor and array of the first is higher: 0.21 for the first, 0.03 for the second.

Compared with RMNLQTMVDTLQEAAQEADAIQEEMN [IFFO2], HRNTRNLAAFLGKASDLLRFPVKQLY is higher in SPOT signal as a fraction of Bim BH3's signal on the same receptor and array: 0.02 for the first, 0.91 for the second.

Binder YGKVKFTAEELSNMASELAKYGLQLP [IQGAP3] has an SPOT signal as a fraction of Bim BH3's signal on the same receptor and array of 0.05.

Source: article PMC4072508, “Genome-Wide Prediction and Validation of Peptides That Bind Human Prosurvival Bcl-2 Proteins” (PLoS Computational Biology, 2014)
